18 sequences from the DeepSol protein solubility set can be followed below.

A short description of the data set: soluble on expression in E. coli; label from the status in PepcDB or PDB records.
Turning to “MGSDKIHHHHHHMRLFKSLKNPKKTDAKLPKKSSGLNNRAAIGIDIDQHSIKMVQLSGRSLNQIQLEKYVIAKLPKNIIQGNKVQNYDQLVTYLQQAYAKLGTSCKNIVASVPQNLATIEQLTYTAKDAELDLQGFVESSISEASSISLEEANYDYQVLSQSAVGEAVLSVASRKDEIEPLIDAFNAAGMKLSALDVDIFGQYNAYALWINHFAPELADEKVAIFGVYAAQTYALVIQDGKILYKQETSVSEEQLNQLIQRTYQVTAEKAEEIINSPQKPSDYQESVANYFNQQITQEIQRVLQFYYTTQTADDMTDIKHILLTGEAVRQKGIAQTVASQTNADVQCVHPARYFANDLKTDEQQFELDAPTLTKAFGLAVRGL”, the “soluble on expression in E. coli” value is “not soluble”. The value for “MTDIDAIIIGAGVIGLATARELSMHGLSVIILESETEFGSATSSRNSEVIHAGLYYPAGSLKARLCVEGRQRLYDFCESHGVAHRHCGKLIVATSDDETPLLVALGAKGKANGCDDLELIDQRHALSLEPALACSSALLSPSTGIIDSHGYMLALLGEAQDHGAALALNAPFERAEAIGDGFRVHVGGKEPVSLTCRLLVNSAGLVAPMVAAMIEGLPSVAIPQARFAKGSYFSLTGKSPFSRLIYPAPHTHGLGVHLTLDLAGQARFGPDVEWVDTIDYAVDPRRMEGFGDAIRRYWPGLPEHTLAPAYSGIRPKISGPDEPAMDFRIDGPETHGFPGLVNLFGIESPGLTASLAIAGEIAARLEALEHHHHHH” was “not soluble”; that for “MAKQIKGIAASDGVAIAKAYLLVEPDLSFDNESVTDTDAEVAKFNGALNKSKVELTKIRNNAEKQLGADKAAIFDAHLLVLEDPELIQPIEDKIKNESVNAAQALTDVSNQFITIFESMDNEYMAERAADIRDVSKRVLAHILGVELPNPSIVDESVVIIGNDLTPSDTAQLNKEYVQGFVTNIGGRTSHSAIMSRSLEIPAVVGTKSITEEVEAGDTIVVDGMTGDVLINPSDEVIAEYQEKRENFFKDKQELQKLRDAESVTADGHHVELAANIGTPNDLPGVIENGAEGIGLYRTEFLYMGRDQMPTEEEQFEAYKAVLEAMKGKRVVVRTLDIGGDKELPYLDLPEEMNPFLGYRAIRLCLDQPEIFRPQLRALLRASVFGKLNIMFPMVATIQEFRDAKALLEEERANLKNEGYEVADDIELGIMVEIPSTAALADIFAKEVDFFSIGTNDLIQYTMAADRMSERVSYLYQPYNPAILRLVKQVIEASHAEGKWTGMCGEMAGDQTAIPLLLGLGLDEFSMSATSILKARRLIRSLNESEMKELSERAVQCATSEEVVDLVEEYTKNA” was “soluble”; that for “MAEYSMKELIEWNEKIEEIARAEGLDYYEQEFEICSYEDMIAYETYVGMPSHYPHWSYGKNYERIKTLYKYNLTGLPYEMVINSDPCIAYLMKDNTLLLQILTMAHVYGHNDFFKNNRLFKLGTRAKDTVDMFKNHADRIREYIQDPGIGYAKVEKILNAAHAIRYQISRNIGVRVLSQEEKKKELLERYNKPKSEYPLLEPKSKEEEAPPDFKKIPVEPEEDMLLFFMNYSKLTDWERDILSIVREETLYFLPQIETKIMNEGWASFWHYNILNKLNLEQGLHFEFLKRHNQVIRPVLGQLNPYYIGFRIFEDLKKRYEDDPKKIFEVREVERDQSFIRRYLTRELCEEMNLFEYAKIGNSYIVTEVSDEEGWKKIRDTIANNVGLAGIPVIKVAEWVQKDNTLVLEHEYDGREIELSYAYETMKHIVDLWDGKVMLGTVIDNKKKIIVCNEQKKVTLTDG” was “not soluble”. Next, “MGSDKIHHHHHHMTNKNYLLYVDNEKYVLRLPGVMTSNLISRHYEMNNSILMSQAEFNVETIYFNADNGIKITKFLEKGINFNHNNIHQYEYLFLISKELYKLHHSDIQFNNEFNVFETFQQYFDLLKDKNGFFCFNKNIPLIYEFFIKISKNNSFYNIKCPCHNDLVPENILLKNNKLFFIDWEYSGMNAPLFDVAAFFLESRIPKEKQKYFLAHYDHHLDFEKSRMEILFHQFTQDVLWFLWTLIKEENNETFENYASIRINRAYELMKDLVKNEVI”: “not soluble”. In the case of “GPGSEHLTTVAAPFTCPIRRTVFAEGRRTIIFFRNIDATTAVFHQLRSAGFAVSLLHASLPYKVRKEMYADFASGRTNILCATDVAARGLDLHVDMVINFDVPTNALAYLSRSGRTARMGREGQVLNLYNKHQGVIVSAIKAFLKDNLPMEGLTNRKADMMQPRYAEWRTHKINALARSYVSLITR”, the “soluble on expression in E. coli” value is recorded as “not soluble”.

For the sequence “MAHHHHHHMEQDAASRPVTESEQTTTSYHGHTVSFLLLLYRRLEFESSGSTRPKAMLLRSDDTSPWPSPAPLSPVPSRPSSCRSSFSSLSVTSCISIISLLISSKTAVSRFTSSSWRLRRSSSCCCNSCAVAILLPLRAHGTTQPTGKKKKKKKEREKRKTQDAHHN”, the “soluble on expression in E. coli” value was “not soluble”. The value for “MTNLETYFKNSQPLNEYIDGMKTNQDTVLSIYQSFELPEDDSRIKKIKEMNYSKVLVITEDWCGDAMMNLPILKHISEALNLEVRVFHRDDDTKLIDQYLTNGKSRAIPIFVFLNDQFEQETVWGPRANEVQKFVTDVRADKLPSKDHPDYADLEKETHLVISNRYKTDASFWKAVYNSILNKLENK” was “not soluble”; that for “MGSDKIHHHHHHMDTDWSNLAVRLERLLERFERIIDRHDPVLPRDPAFFDGAIAFRWRRSGEQGTFEPVTHPHLPDPADLVGIDLVREDLIRNTAQFMDGYPANNVLLWGERGTGKSTCVKGMLRLFADRGLRLVEVQRDDLMSLPALIAALRSVPRRFILFCDDLSFGEGEGGYRELKALLEGSIEAKPTNILFYATSNRRHLLPERMEDNLSSEIHPEEAVSEKLSLADRFGMALGFYPFSQDVYLSIVERYAEKFALPMEREALRKEAHLWAMYRGSRSGRSARQFIDDLAGRLGVRLNDR” was “not soluble”. Next, “MGSDKIHHHHHHMLDSPLSLLAGVGAEIAAGNLIPFLGPDVLTIEAEPPVPVGARTLSLALASKVGVPGRIKNNLWHSAQYIETHKHRVTLDKLMAAFFQPIPEPNALHRWLAGLPKLPMVVDTWYDGAMKAAFEAVGRESWGIVQGCSKARRLDGGVWFRAVSPDGAIVAEDVAESWRTVLYKPHGAAQPTGDVLVSDSDYVEVLTDIDIGTPIPQLVKDRRSNRGFVFLGCRFYDQILRTFARQISKRCGGPRYAVVPEELTRNELKFLEVEGITPITMPLAEAVALMTAAKTA”: “not soluble”. Turning to “SNAIMAKTAKVAVSQIVEHPALDATRQGLLDGLKAKGYEEGKNLEFDYKTAQGNPAIAVQIARQFVGENPDVLVGIATPTAQALVSATKTIPIVFTAVTDPVGAKLVKQLEQPGKNVTGLSDLSPVEQHVELIKEILPNVKSIGVVYNPGEANAVSLMELLKLSAAKHGIKLVEATALKSADVQSATQAIAEKSDVIYALIDNTVASAIEGMIVAANQAKTPVFGAATSYVERGAIASLGFDYYQIGVQTADYVAAILEGKEPGSLDVQVAKGSDLVINKTAAEQLGITIPEAVLARATSTK”, the “soluble on expression in E. coli” value was “soluble”.

As for “MVNPEEQPISILFLGIDDNDGRRKKGQDAEHSRSDAMILTTFNQSKHQIRMLSIPRDTISYIPKVGYYDKITHAHAYGGPIAAMDSVEATMNVPVDYYVRVNMKAFVEAVNELGGIYYDVPYDLNEPNTDDTGKIKIKKGYQKLNGDEALAVARTRHHDSDLKRGQRQMELIKILFQKAQEVDSIDKLDNVIQIVGKNAKHNLTNSEIKALAKMYLTNDVEIKTAQLKGKDDMLNGIYYYHPSVESIQKYANLLRKDLELSPINDKNDFLDQRVINHYGSLIPLTPLDSSLLRKEQNDTTDKDKTSNENNDSTNNSDSSNQQQPATDQNLNQNQGGTQQAPQASNNQNGVVNLEHHHHHH”, the “soluble on expression in E. coli” value is “soluble”. The value for “MSLTKTVLILTAAIDLDGGDWFSPCWERVTRSMALGKAGDIIHGCVPGAALAIREEKPIAAGRSAQNRRGSFREQEDGSYVLLAGRIFNRTDLLRRFDLKQGMDDADLYAAVSARMGEAAYRAIVGDYAALQWFPQRRSLRLARSGTSNMPLHVWRDGSRIVISSLPGPILASGVPARINDDRVADELLLFSPDGRTSFYAGMHRVPGGGEEVHDPSGFKARRLWSVKDAPEIRLRRDEDYVEALDVLFDEAVSATMDGSSAPGILLSGGFDSQTVASYAVKRLPAGRRLQAFTSVPMQGWTPPPRPGIFGDESAHVRALCAMYPQIEPHFIEAADFRYGERGHRQFLVGGWPVFNEMNAHWSHASLEQAADLGCDLMLTGDLGNSGFSYDGLTGYPTWLREGQWFRLLREIGKSDDPRPFWRKLISLAVMPHVPVRWKRKMDRHRPWRPSAFATWCGMREDFARESGVLDRAEAGGHDIDFYDIPSARTWRANVVDSLNDGAPEIYLGYQLLYGVPMRDPTAYLPLLEFCAGIPDEQYLRDGQTRWLARRLMQGRVPEMVRLENRIGAQSSDWPQRFARDREDLIAEMERMKADERLAKIFDFERLAANLREWDGSDRPESRSNFKINAAVGRAMVSARFVSHVEGRNVGEGHHHHHH” was “soluble”; that for “MGHHHHHHSHMAAGTLYTYPENWRAFKALIAAQYSGAQVRVLSAPPHFHFGQTNRTPEFLRKFPAGKVPAFEGDDGFCVFESNAIAYYVSNEELRGSTPEAAAQVVQWVSFADSDIVPPASTWVFPTLGIMHHNKQATENAKEEVRRILGLLDAYLKTRTFLVGERVTLADITVVCTLLWLYKQVLEPSFRQAFPNTNRWFLTCINQPQFRAVLGEVKLCEKMAQFDAKKFA” was “not soluble”; that for “MKDVTIYHNPRCSKSRETLALVEQQGITPQVVLYLETPPSVDKLKELLQQLGFSDARQLMRTKEDLYKTLNLDDRGLTQDQLLQAMADNPKLIERPIVVTQGKARIGRPPEQVLEILK” was “not soluble”.

For the sequence “MGSDKIHHHHHHMRKILLPYPAGCATGTFVRRVKRFSVEMTRDGESVWVHSNNSGSMLGLLRPGATMLASPAANPDRKLAWTHEAMRCHGDGPQGFWVGVNTSVPNRMVEAAFHAGRLPWAQGYDTFRRERKRGDSRLDARLDGPGLPTLWVECKNVTMVEDDVACFPDAVTERGSKHLREMMDIVSRGERAAMFYLVQRPDGLCFGPADVIDPQYAALFWEAVDAGVEMYPHRGIVSPVGIDLSGVLPLTRCR”, the “soluble on expression in E. coli” value is recorded as “not soluble”.

Take “MELKNKKWTDEEFHKQREEVLQQWPTGKEVDLQEAVDYLKKIPAEKNFAEKLVLAKKKGITMAQPRAGVALLDEHIELLRYLQDEGGADFLPSTIDAYTRQNRYDECENGIKESEKAGRSLLNGFPGVNFGVKGCRKVLEAVNLPLQARHGTPDSRLLAEIIHAGGWTSNEGGGISYNVPYAKNVTIEKSLLDWQYCDRLVGFYEEQGVHINREPFGPLTGTLVPPSMSNAVGITEALLAAEQGVKNITVGYGECGNMIQDIAALRCLEEQTNEYLKAYGYNDVFVTTVFHQWMGGFPQDESKAFGVIVTATTIAALAGATKVIVKTPHEAIGIPTKEANAAGIKATKMALNMLEGQRMPMSKELETEMAVIKAETKCILDKMFELGKGDLAIGTVKAFETGVMDIPFGPSKYNAGKMMPVRDNLGCVRYLEFGNVPFTEEIKNYNRERLQERAKFEGRDVSFQMVIDDIFAVGKGRLIGRPE”: the “soluble on expression in E. coli” value is recorded as “soluble”. The value for “AVRQLDRQGRDDVEVAVLAPQPELRIRPRFYEPDVQRMAAPLGELFAAVGVRFVQGSAQRIDVAGKRVEYRDAEGTLAQLDYDRLVLAAGSGVWRPASVAGIDAAFDVDQLEDALRLEAHLHALRDLPDSPARNTVVVAGGGFTGIETATEMPARLRAILGEKAALRVIVVDRGAAIGASMGADLSGLIAEASAELGVEWCLGRSVAAVDAEGVTLDDGQRIEAKTVVWTVGVRASTLTGQIPGERDAQGRLHVDRNLKVLGLDDVYATGDVARAATDDLGNHALMTCQHAIALGRSAGNNVAADLLGVEPIPYSQVKYVTCLDLGGWGAVFTEGWDRQVRFVREEGKKIKTEINGVWIYPPAADRAVALAAADPLIPVVA” was “not soluble”.
